Results on 31 sequences are retold here after the supplement of paper PMC9170038.

The subject of this data set is MS2 coat protein. As to the kind of experiment: apparent KD of MS2 coat protein; designed switch direction (-1 OFF switch, 1 ON switch): -1; higher = weaker reporter binding. The essentials:
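Designed RNA switches with common flanks were transcribed on Illumina chips by stalled E. coli RNA polymerase and titrated with SNAP-549-labelled MS2 coat protein, from 0.7 or 1.5 nM doubling to 3 µM, in Tris-HCl pH 7.5 buffer with KCl, MgCl2, BSA, DTT, tRNA and Tween-20. Steps lasted 0.8–1.5 h (lowest) to 10–20 min (highest). Titrations ran without input, with 200 uM small-molecule ligand, or with an oligonucleotide input. Normalised cluster fluorescence was curve-fitted, and apparent KD is the per-design median over clusters.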

Where [1] appears, read: Eterna round: R95, input ligand: FMN 200 uM.
[2] abbreviates: Eterna round: R95, input ligand: microRNA oligo, concentration not stated.
The mark [3] stands for this setting: Eterna round: R95, input ligand: none.
[4] abbreviates: input ligand: microRNA oligo, concentration not stated.

Regarding “AUAUUAACAUAGGAUAUCGAAUAAAUUAUUUAACGAGAAGGAUGAACAUGAGGAUCACCCAUGUGGUAUCAUGG [Mat - Exclusion 6 - JL Mod - D29] (puzzle: Exclusion 6)”, the “apparent KD of MS2 coat protein” value by setting is: under setting [1], 0.153 µM; under setting [2], 0.236 µM; under setting [3], 0.411 µM.

“AUCAGCUCGUGAGGAUAUGAACAUGAGGAUCACCCAUGUAAGAUCAAGCUGCUUCGGCAGCAAGUUCAGAAGGCACGAGCUGAU [ENG2/10-A3] (Eterna round: R96, puzzle: Exclusion NG 2)”: the “apparent KD of MS2 coat protein” value runs as follows: (input ligand: FMN 200 uM) 0.182 µM; under setting [4], 0.084 µM; (input ligand: none) 0.156 µM.

As to “AUCAGCUCGUGAGGAUAUGCACAUGAGGAUCACCCAUGUAAGAUCAAGCUGCUUCGGCAGCAAGUGCAGAAGGCACGAGCUGAU [ENG2/9-A2] (Eterna round: R96, puzzle: Exclusion NG 2)”, the “apparent KD of MS2 coat protein” value runs as follows: (input ligand: FMN 200 uM) 0.186 µM; under setting [4], 0.132 µM; (input ligand: none) 0.182 µM.

With “AUCAUGUAAGGAUAUCGUGCAAGUUUCAAAAGAGGCUUGUGCGAGAAGGUACAUGAGGAUCACCCAUGUAGGUU [Omei Ex4 B10] (Eterna round: R97, puzzle: Exclusion 4)”, the “apparent KD of MS2 coat protein” value reads like this: (input ligand: FMN 200 uM) 0.0578 µM; (input ligand: none) 0.584 µM.

“AUCAUGUAAGGAUAUCUGACAUGUGACUUCGGUCACUGUUCAGAGAAGGUACAUGAGGAUCACCCAUGUAGAAC [Ex4-3: 44] (puzzle: Exclusion 4)”: the “apparent KD of MS2 coat protein” value under setting [2] amounted to 0.0596 µM.

Turning to “AUCAUGUCAGGAUAUCUGAUAUGGAUCUUCGGAUCAAGUUCAGAGAAGGGACAUGAGGAUCACCCAUGUCGAAC [Ex4-3: 31] (puzzle: Exclusion 4)”, under setting [2], the “apparent KD of MS2 coat protein” value stood at 0.0256 µM.

With “AUCCUGAGGCUUUGCUUUAGGCGUACAUGAGGAUCACCCAUGUAGGAUAUGGUAGGCUUUGCUUACCAGAAGGACAUUAUGAUC [JL EXNG3 1.19] (Eterna round: R96, puzzle: Exclusion NG 3)”, the “apparent KD of MS2 coat protein” value (input ligand: FMN 200 uM) turned out to be 0.243 µM, the “apparent KD of MS2 coat protein” value under setting [4] came to 0.0441 µM and the “apparent KD of MS2 coat protein” value (input ligand: none) is 0.043 µM.

In the case of “AUCGUGAAGAAGGAUAUGGGCCCGGUAAAACGACUAGAAGGUCUGACAUGAGGAUCACCCAUGUGAUACCAAAA [Veve] (puzzle: Exclusion 6)”, the “apparent KD of MS2 coat protein” value by setting is: under setting [1], 0.0341 µM; under setting [2], 0.0429 µM; under setting [3], 0.0353 µM.

Turning to “AUCGUGCAGCUUUGCUGUACGAGUACAUGAGGAUCACCCAUGUAGGAUAUGGUACGCUUUGCGUGCUAGAAGGAUAUGAGUAGG [EX ENG3 1.42] (Eterna round: R96, puzzle: Exclusion NG 3)”, the “apparent KD of MS2 coat protein” value by setting is: (input ligand: FMN 200 uM) 0.0843 µM; under setting [4], 0.043 µM; (input ligand: none) 0.0483 µM.

“AUCUCUCGUGUUAGGAUAUCCAGUUAGUUCGUGCGGGAGAAGGAACAUGAGGAUCACCCAUGUAAACAAAUCGC [BmEX4 B.21] (Eterna round: R97, puzzle: Brourd's mod of Exclusion 4)”: the “apparent KD of MS2 coat protein” value is, setting by setting: (input ligand: FMN 200 uM) 0.0521 µM; (input ligand: none) 0.0185 µM.

Regarding “AUGAAGUAAGGAUAUUAUCGCGGGCAGAGGCCCAGCUCAUAUGAGAAGGUACAUGAGGAUCACCCAUGUCCUCU [Eternabot (L2) Solution 72] (Eterna round: R97, puzzle: Exclusion 4)”, the “apparent KD of MS2 coat protein” value runs as follows: (input ligand: FMN 200 uM) 0.0259 µM; (input ligand: none) 0.03 µM.

For “AUGAGCAGACGGAGAUCCAACAUGAGGAUCACCCAUGUCUCAAAAGCUUUUUGCUCAUCUUAUUGUACCUUGGUGCU [Mat - Sensor v3 - turn-off var 1 - JL Mod - D16] (puzzle: Sensor v3, turn-off variant 1)”, the “apparent KD of MS2 coat protein” value reads like this: under setting [1], 0.167 µM; under setting [2], 0.0132 µM; under setting [3], 0.194 µM.

On to “AUGAGGUGAGGAUAUACGAGAUGAUAUUGCAGAGCAAGUCAGUAGAAGGCACAUGAGGAUCACCCAUGUUCGGG [Eternabot (L2) Solution 93] (Eterna round: R97, puzzle: Exclusion 4)”, for which the “apparent KD of MS2 coat protein” value was determined as 0.269 µM (input ligand: FMN 200 uM) and 0.397 µM (input ligand: none).

Turning to “AUGCGACAUGAGGAUCACCCAUGUGAGGAUAUGCGAAUGCAUACUUCGGUGUGAUAGAGCAGAAGGCGCAGGUA [EX1 #16] (Eterna round: R97, puzzle: Exclusion 1)”, the “apparent KD of MS2 coat protein” value is 0.56 µM (input ligand: FMN 200 uM) and 0.831 µM (input ligand: none).

For “AUGCGACAUGAGGAUCACCCAUGUGAGGAUAUGCGAAUGCAUACUUCGGUGUGAUAGAGUAGAAGGCGCAGGUA [EX1 #17] (Eterna round: R97, puzzle: Exclusion 1)”, the “apparent KD of MS2 coat protein” value came to 0.472 µM (input ligand: FMN 200 uM) and 0.761 µM (input ligand: none).

Turning to “AUGCGUGGCUAGGAUAUCGAGGAAUUUAGCCAGCGAGAAGGAGCCACAUGAGGAUCACCCAUGUGGUGAACCUC [jl-ex6-4.62 ViennaUCT mod] (Eterna round: R97, puzzle: Exclusion 6)”, the “apparent KD of MS2 coat protein” value (input ligand: FMN 200 uM) was found to be 0.0411 µM and the “apparent KD of MS2 coat protein” value (input ligand: none) stood at 0.0102 µM.

Regarding “AUGCGUGGCUAGGAUAUCGAGGAAUUUAGCCAGCGAGAAGGAGCCACAUGAGGAUCACCCAUGUGGUGAACCUU [jl-ex6-4.64 ViennaUCT mod] (Eterna round: R97, puzzle: Exclusion 6)”, the “apparent KD of MS2 coat protein” value (input ligand: FMN 200 uM) is 0.0145 µM and the “apparent KD of MS2 coat protein” value (input ligand: none) is 0.0158 µM.

As to “AUGCGUGGCUAGGAUAUUGAGGAAUUUAGCCAGCAAGAAGGAGCCACAUGAGGAUCACCCAUGUGGUGAACCUC [jl-ex6-4.61 ViennaUCT mod] (Eterna round: R97, puzzle: Exclusion 6)”, the “apparent KD of MS2 coat protein” value worked out at 0.0132 µM (input ligand: FMN 200 uM) and 0.0306 µM (input ligand: none).

Take “AUGCUCCGUGUAGGAUAUCGCCGCACCACCCGGCGAGAAGGACAUGAGGAUCACCCAUGUAUGUUAUUAUCACGUGUGGCGCGC [Design 42] (Eterna round: R96, puzzle: Exclusion NG 1)”: the “apparent KD of MS2 coat protein” value is, setting by setting: (input ligand: FMN 200 uM) 0.0172 µM; under setting [4], 0.0123 µM; (input ligand: none) 0.0136 µM.

For “AUGCUCCGUGUAGGAUAUCGCCGCAUCACUCGGCGAGAAGGACAUGAGGAUCACCCAUGUAUGUUAUUAUCACGUGUGGCGCGC [Design 44] (Eterna round: R96, puzzle: Exclusion NG 1)”, the “apparent KD of MS2 coat protein” value (input ligand: FMN 200 uM) was 0.0523 µM, the “apparent KD of MS2 coat protein” value under setting [4] is 0.0167 µM and the “apparent KD of MS2 coat protein” value (input ligand: none) turned out to be 0.0253 µM.

With “AUGGAGGUAGUCAGGAUAUCGGGCGCUCGGGCGUACGAGAAGGGACAUGAGGAUCACCCAUGUCGCUCAUUCCA [BmEX4 C.2] (Eterna round: R97, puzzle: Brourd's mod of Exclusion 4)”, the “apparent KD of MS2 coat protein” value was 0.0246 µM (input ligand: FMN 200 uM) and 0.0234 µM (input ligand: none).

As for “AUGUACCGAAGAAGUUGUAACAUGAGGAUCACCCAUGUCGAAGUGAGGACAGGGAAGAGAAGCUGUGCUCGUCAUAG [Eternabot (L2) Solution 17] (Eterna round: R97, puzzle: Sensor, turn-off variant 1)”, the “apparent KD of MS2 coat protein” value reads like this: (input ligand: FMN 200 uM) 0.0716 µM; (input ligand: none) 0.0779 µM.

Regarding “AUGUGCACGCUGCGAUCCUACAUGAGGAUCACCCAUGUGGUCUGGUGGCGUGGGUCACCGGACUUGGCUCGUCUUGA [salish99_S_TOV1_R5_067] (Eterna round: R97, puzzle: Sensor, turn-off variant 1)”, the “apparent KD of MS2 coat protein” value reads like this: (input ligand: FMN 200 uM) 0.117 µM; (input ligand: none) 0.128 µM.

Consider “AUGUUGUCAGGAUAUCGUUAAUUUAGUUGUUUGUAUUAGUUCGAGAAGGGACAUGAGGAUCACCCAUGUUUGAA [Ex4 #35] (Eterna round: R97, puzzle: Exclusion 4)”, for which the “apparent KD of MS2 coat protein” value (input ligand: FMN 200 uM) was found to be 0.0412 µM and the “apparent KD of MS2 coat protein” value (input ligand: none) amounted to 0.0348 µM.

For the sequence “AUUAAAACAUAGGAUAUCGAAUUUAUUAUUUAACGAGAAGGAUGAACAUGAGGAUCACCCAUGUGGUAUCAUGG [Mat - Exclusion 6 - JL Mod - D26] (puzzle: Exclusion 6)”, the “apparent KD of MS2 coat protein” value under setting [2] amounted to 0.202 µM.

With “AUUAUACAUGAGGAUCACCCAUGUGAGGAUAUCCGCAGCACAGGCAGAGUCGGUUGCAGGAGAAGGCACUCCUC [Eternabot (L1) Solution 57] (Eterna round: R97, puzzle: Exclusion 1)”, the “apparent KD of MS2 coat protein” value by setting is: (input ligand: FMN 200 uM) 0.0725 µM; (input ligand: none) 0.0444 µM.

In the case of “AUUAUAUAGACAGGAUAUUGAUUAUUAUUUUAACAUGAGGAUCACCCAUGUAACCUUAUGUAUAGCAAGAAGGGUCAUUUAUUA [Title] (Eterna round: R96, puzzle: Exclusion NG 2)”, the “apparent KD of MS2 coat protein” value runs as follows: (input ligand: FMN 200 uM) 0.107 µM; under setting [4], 0.0729 µM; (input ligand: none) 0.0756 µM.

On to “AUUAUAUAGACAGGAUAUUGAUUAUUAUUUUAACAUGAGGAUCACCCAUGUAACCUUAUGUGUAGCAAGAAGGGUCAUUUAUUA [Title] (Eterna round: R96, puzzle: Exclusion NG 2)”, for which the “apparent KD of MS2 coat protein” value under setting [4] came out at 0.0818 µM.

For the sequence “AUUCGAAAGAUCCACAUGGACAUGAGGAUCACCCAUGUGCAAGCCUUUUUCUCGUCACUAUCGUCAAAAGACGAUAG [Omei Mir Offv1 A7] (Eterna round: R97, puzzle: Sensor, turn-off variant 1)”, the “apparent KD of MS2 coat protein” value (input ligand: FMN 200 uM) is 0.744 µM and the “apparent KD of MS2 coat protein” value (input ligand: none) is 0.848 µM.

Consider “AUUGAUGUUGAGGAUAUGCUUUUAUUUGUUCUUGCAGAAGGCGAUACAUGAGGAUCACCCAUGUUCAUGGAAGU [JR_E6_Sub090] (puzzle: Exclusion 6)”, for which, under setting [2], the “apparent KD of MS2 coat protein” value came out at 0.0397 µM.

“AUUGCGCGAGGAUAUACGAGAGACCUGUGUCAGAACCAUGGACAUGAGGAUCACCCAUGUAGAAGGCGUGCUCU [Eternabot (L1) Solution 73] (Eterna round: R97, puzzle: Exclusion 2)”: the “apparent KD of MS2 coat protein” value (input ligand: FMN 200 uM) came to 0.0786 µM and the “apparent KD of MS2 coat protein” value (input ligand: none) came out at 1.2 µM.
